For 107 sequences, AmyQ secretion efficiency results are on record in the supplement of paper PMC9942255.

The series concerns Bacillus subtilis DB104 (SP-AmyQ fusion secretion). Put plainly: AmyQ secretion efficiency, weighted average sort bin (1 = best secretion, 10 = worst) (bin number (weighted average, 1-10)); higher = lower secretion efficiency. The method, boiled down: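 A B. subtilis DB104 library carrying amyE-integrated fusions of designed signal peptides to mature AmyQ was encapsulated at about 0.3 cells per ~65 nL alginate bead with fluorescein-starch and grown about 13 h at room temperature. Following nile red staining, occupied beads were flow-sorted as large particles into 10 equally populated bins by green/red fluorescence ratio, and the bin amplicons were Illumina-sequenced. The secretion score is the read-frequency-weighted average bin number normalised to beads per bin, leaving out low-abundance sequences.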

Sequence MSKLVLCVSILAVILSGVALTQLS returned an AmyQ secretion efficiency of 6.37.
The value for MSKRLIAPMLLSAASLAFFAMSGSAQAAAY was 3.13; that for MSKTGRYTKAVIVIAALITFNVRNASPG was 4.05.
The value for MSKVLMAFIICLSLILSVLAAPPSGAKAESV was 2.82; that for MSKWLIIAVSLAIAIVLFMYTKGEAKAAGM was 7.49.
With MSKWMAGLFLAAAVLLCLMVPQQIQGASS, the AmyQ secretion efficiency was determined as 4.5.
For MSKWMITIAMLILAGIALFVFISPLKSHKT, the AmyQ secretion efficiency was 5.71.
MSLITFSLIITSAIIIAIIAAVIVIAALITFNVRNASPG displayed an AmyQ secretion efficiency of 7.04.
Sequence MSLMIVFMTLPLLIVCLAFSSFSASARAASE had an AmyQ secretion efficiency of 4.54.
For MSLNKRVSMFLVALTMCGGLFVTPAKAVKT, the AmyQ secretion efficiency came out at 2.92.
Turning to MSLWMSKTLVVLFTIVTFGLVSPPAALMADKP, the AmyQ secretion efficiency amounted to 2.43.
The sequence MSLYTVIASILLSFLSVLSGGHHESKAFPV had an AmyQ secretion efficiency of 5.37.
In the case of MSMIGLLFMLCLAALFTIGFPAQQADAAEA, the AmyQ secretion efficiency was 2.
For MSMMLRRNFKRFIAAFLVLALMISLVPADVLAKST, the AmyQ secretion efficiency was found to be 1.81.
Then MSMMSKLSLGVASAALGLALVGGGTWAAFN, with 5.67; and MSMVMLATALFLGLTPAGANAADL, with 5.37; and MSMWMITIAMLILAGIALFVFISPLKSHKT, with 7.42.
Then MSNLCVMMLLFSAIASFPVSAQAKDQ, with 3.93; and MSNMSCMLVVSVTLFFSFLTIGPLAHAQNS, with 1.7; and MSPVFPLILSAVLFLSCFFGARQTEASASKR, with 2.21.
MSRIRIPMTLALGAALTIAPLSFASAEEN came in with an AmyQ secretion efficiency of 3.2.
MSRITINIITMFIAAAVISLTGTAEAAEK showed an AmyQ secretion efficiency of 2.45.
The value for MSSCGGILIVCSLAAILLLIPSVSFAADS was 4.26.
The value for MSSGIIVAGLAVSAVVGSSMAAAPAEAKTI was 6.57; that for MSSGTVIASILLSFLSVLSGGHHESKAFPV was 6.28.
Regarding MSSKAWFLPLVCVLLISGWLAPAASASAQTT, the AmyQ secretion efficiency stood at 1.72.
As to MSSMTCKLVVSVTLFFSFLTIGPLAHAQNS, the AmyQ secretion efficiency turned out to be 1.57.
In the case of MSSSVKIAGVLTVAAAAMTAKMYATAKGN, the AmyQ secretion efficiency stood at 4.6.
The value for MSSTITFVLTMCFLGLILFVPTALADNS was 2.16; that for MSSYIKVLTMCFLGLILFVPTALADNS was 1.7; that for MSTFLIGAGVAAVILSGWFIADHQTHSQEM was 6.2.
Then MSTGILAAGLTASAIVGTTLVVTPAEAATI, with 4.73; and MSTGTILVIASILLSFLSVLSGGHHESKAFPV, with 6.64; and MSTGTSGSLISSLIVLSTVVISSLLFPGAAGASSK, with 2.34.
Consider MSTIGLLFMLCLAALFTIGFPAQQADAAEA, for which the AmyQ secretion efficiency is 2.8.
The value for MSTIWIGMLAAAVLLLMVPKVSLADAA was 6.21; that for MSTKQVMLALTAAAGLGLTALHSAPAAKAAPL was 2.43.
Then MSTLVLCVSILAVILSGVALTQLS, with 6.38.
On to MSTMIVRMTLPLLIVCLAFSSFSASARAASE, for which the AmyQ secretion efficiency worked out at 2.3.
Then MSTNLLSSLAISALSLGLLVSAPTASFAAES, with 3.94; and MSTSTSSSLISSTVLSTVVISSLLFPGAAGASSK, with 2.7.
Then MSTTIIITATTAVVLGSTLFAGAASAQSI, with 2.61; and MSVCQKSIVRFLVSLIIGTFVISVPFMANAQSD, with 1.68.
The value for MSVMTTMLLSTAAGLLLSLTATSVSAHYV was 4.5; that for MTFTKVVGFLSVLGLAAVFPLTAQAEKA was 3.02; that for MTGGSAVLLSLIMLIAGFLISFSFQM was 7.63.
MTGGVILAAFILVGSTLGAFSFSSDASAKHV: the AmyQ secretion efficiency turned out to be 3.83.
Then MTGLKMLSMLTVMIASLFIFSSQALAVQY, with 1.83; and MTGLWRSLALCGLALTLAPCAQAAEP, with 2.01.
Then MTGMLGSMLLITAGILVFFAVVVKDVFAAGL, with 4.32; and MTGSLLSSLAISALSLGLLVSAPTASFAAES, with 5.96; and MTGSSVITCVMAASLTLGSLLPAGYATAKED, with 4.28.
Then MTGTIITATTAVVLGSTLFAGAASAQSI, with 2.31; and MTGTTVSTAIIIISVMLSFVIAVFHTIHASELTP, with 4.15; and MTGWLIIAVSLAIAIVLFMYTKGEAKAAGM, with 7.08.
With MTGYYKVLTMCFLGLILFVPTALADNS, the AmyQ secretion efficiency was determined as 1.69.
The value for MTIFLMAVFVIMISFLIATVNVNTAHAAID was 6.34; that for MTIIIAIIAAVIVIAALITFNVRNASPG was 7.45.
The value for MTKAFLVFLSVVLVTTVFLVKQQESVAQAKQL was 5.72; that for MTKIGLLFMLCLAALFTIGFPAQQADAAEA was 3.42; that for MTKKAKKKKLVCVLLISGWLAPAASASAQTT was 2.39.
In turn, MTKKARKLPLVCVLLISGWLAPAASASAQTT returned an AmyQ secretion efficiency of 1.96.
With MTKKAWFLPLVCVLLIDEDLAPAASASAQTT, the AmyQ secretion efficiency came out at 2.58.
The sequence MTKKAWFLPLVCVLLIEEEEEEAASASAQTT displayed an AmyQ secretion efficiency of 6.12.
Then MTKKAWFLPLVCVLLIRKKLAPAASASAQTT, with 7.9; and MTKKAWFLPLVCVLLISGWLAASAQTT, with 6.17; and MTKKAWFLPLVCVLLISGWLAPAASASAQED, with 2.97.
Then MTKKAWFLPLVCVLLISGWLAPAASASAQTD, with 1.97; and MTKKAWFLPLVCVLLISGWLAPAASASAQTK, with 1.59; and MTKKAWFLPLVCVLLISGWLAPAASASDQTT, with 2.72.
Then MTKKAWFLPLVCVLLISGWLAPAASASEQTT, with 1.79; and MTKKAWFLPLVCVLLISGWLAPAASASFQTT, with 2.38.
MTKKAWFLPLVCVLLISGWLAPAASASGQTT showed an AmyQ secretion efficiency of 1.87.
The value for MTKKAWFLPLVCVLLISGWLAPAASASHQTT was 2.01; that for MTKKAWFLPLVCVLLISGWLAPAASASKQTT was 2.02.
Then MTKKAWFLPLVCVLLISGWLAPAASASLQTT, with 3.41.
Then MTKKAWFLPLVCVLLISGWLAPAASASMQTT, with 2.07; and MTKKAWFLPLVCVLLISGWLAPAASASNQTT, with 2.2.
MTKKAWFLPLVCVLLISGWLAPAASASPQTT showed an AmyQ secretion efficiency of 2.48.
The sequence MTKKAWFLPLVCVLLISGWLAPAASASQQTT registered an AmyQ secretion efficiency of 2.02.
Then MTKKAWFLPLVCVLLISGWLAPAASASRQTT, with 1.94; and MTKKAWFLPLVCVLLISGWLAPAASASSQTT, with 1.17.
The value for MTKKAWFLPLVCVLLISGWLAPAASASTQTT was 2.01; that for MTKKAWFLPLVCVLLISGWLAPAASASVQTT was 2.48.
MTKKAWFLPLVCVLLISGWLAPAASASWQTT had an AmyQ secretion efficiency of 3.5.
The value for MTKKAWFLPLVCVLLISGWLAPAASCSAQTT was 3.03; that for MTKKAWFLPLVCVLLISGWLAPAASGSAQTT was 2.23; that for MTKKAWFLPLVCVLLISGWLAPAASISAQTT was 2.33.
The value for MTKKAWFLPLVCVLLISGWLAPAASKSAQTT was 4.7; that for MTKKAWFLPLVCVLLISGWLAPAASLSAQTT was 3.89; that for MTKKAWFLPLVCVLLISGWLAPAASMSAQTT was 3.47.
The value for MTKKAWFLPLVCVLLISGWLAPAASRSAQTT was 5.9.
MTKKAWFLPLVCVLLISGWLAPAASSSAQTT gave an AmyQ secretion efficiency of 3.
Then MTKKAWFLPLVCVLLISGWLAPAASVSAQTT, with 2.17.
Then “MTKKAWFLPLVCVLLIVIALIFSFASGWLAPAASASAQTT”, with 2.12; and MTKKAWFLPLVCVLLIVSWLASAASASAQTT, with 2.08; and MTKKAWFLPLVCVSGWLAPAASASAQTT, with 2.07.
As to MTKKAWFLTLVCVLLISGWLAPAASASAQTT, the AmyQ secretion efficiency was 1.56.
Then MTKKFTIMSAWFLPLVCVLLISGWLAPAASASAQTT, with 1.82; and MTKKGWQLPLVCVLLISGWLAPAASASAQTT, with 1.79; and MTKKRRRAWFLPLVCVLLISGWLAPAASASAQTT, with 2.33.
Then MTKKRWKTPYVCVLLISGWLAPAASASAQTT, with 1.44; and MTKKTKNRLISSVLSTVVISSLLFPGAAGASSK, with 1.56; and MTKKTSIILITSAWFLPLVCVLLISGWLAPAASASAQTT, with 2.35.
Take MTKKYWQSPYYCRLLISGWLAPAASASAQTT: the AmyQ secretion efficiency is 8.15.
The value for MTKLKMLSMGKRRTASLFIFSSQALAVQY was 7.8.
As to MTKLKMLSMLRKKKRRLFIFSSQALAVQY, the AmyQ secretion efficiency is 6.63.
